This note sets out measurements from patent publication US20050019306.

This data set has as its target p48-VP16 TAD (Homo sapiens / Herpes simplex virus) (UniProt Q00978). The experiment in a line: cell_activity. Conditions: 293T ISRE-Luc reporter.
Chain of UniProt Q00978 (Q00978 1-393, tags or fused parts left off): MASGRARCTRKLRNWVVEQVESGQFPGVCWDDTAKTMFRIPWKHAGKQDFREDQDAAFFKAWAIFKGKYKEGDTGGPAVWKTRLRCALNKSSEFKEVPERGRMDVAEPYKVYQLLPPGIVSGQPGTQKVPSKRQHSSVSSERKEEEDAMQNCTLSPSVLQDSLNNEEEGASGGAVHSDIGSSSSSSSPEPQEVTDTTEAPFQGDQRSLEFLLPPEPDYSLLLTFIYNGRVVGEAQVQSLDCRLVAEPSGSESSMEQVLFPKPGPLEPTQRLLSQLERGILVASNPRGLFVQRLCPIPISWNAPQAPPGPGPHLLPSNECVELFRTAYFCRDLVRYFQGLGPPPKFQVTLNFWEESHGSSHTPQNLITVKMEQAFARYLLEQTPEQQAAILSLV

Take 5x ISG54 ISRE luciferase reporter: the activity (fold relative to p48-S2C) came out at 3.
